# Measurements taken from PMC7954794 (2021).
# B1: S. cerevisiae Abp1 (full length; SH3 domain 535-592 mutated) / Hua2 (parent complex)
# chain 1: MALEPIDYTTHSREIDAEYLKIVRGSDPDTTWLIISPNAKKEYEPESTGSSFHDFLQLFDETKVQYGLARVSPPGSDVEKIIIIGWCPDSAPLKTRASFAANFAAVANNLFKGYHVQVTARDEDDLDENELLMKISNAAGARYSIQTSSKQQGKASTPPVKKSFTPSKSPAPVSKKEPVKTPSPAPAAKISSRVNDNNDDDDWNEPELKERDFDQAPLKPNQSSYKPIGKIDLQKVIAEEKAKEDPRLVQKPTAAGSKIDPSSDIANLKNESKLKRDSEFNSFLGTTKPPSMTESSLKNDDDKVIKGFRNEKSPAQLWAERKAKQNSGNAETKAEAPKPEVPEDEPEGEPDVKDLKSKFEGLAASEKEEEEMENKFAPPPKKSEPTIISPKPFSKPQEPVKAEEAEQPKTDYKKIGNPLPGMHIEADNEEEPEENDDDWDDDEDEAAQPPLPSRNVASGAPVQKEEPEQEEIAPSLPSRNSIPAPKQEEAPEQAPEEEIEEEAEEAAPQLPSRSSAAPPPPPRRATPEKKPKENPWATAEYDYDAAEDNELTFVENDKIINIEFVDDDWWLGELEKDGSKGLFPSNYVSLGN
# chain 2: MQQTKFGKMYLDHDSVVEYSEDEIVEADRITLGYKKRLSMIENQMRHLLEDFSLDVQQIEPILADLQKYYDAFLQLLQKRNKSLQCKRSTHQPVPSPMNSQTSTNAKVNLSGKLMKFQLNSVQKFDEENILRILQNKIEFEHYFQIDKGKKQKVLLLAVYQCLNGPTRLHKVLNIEGIIHNNSIRTILGKQVSSSKWTVFLYDVKLVLLAHRQDVPNLETSKMIVRYGDLFPCALYFKDHTAY
# Variants of: B1
# Assay: DHFR protein-fragment complementation in yeast (Abp1-DHFR F[1,2] x partner-DHFR F[3]), deep mutational scanning, second methotrexate selection vs reference; S. cerevisiae, DHFR-PCA selection in liquid with methotrexate at 30 C, two 72 h selections (the score uses the second); reference = the pre-selection culture
row,screen value,Variant
1,"0.556 DMS score: mean over two replicates of log2(f_test/f_ref + 0.5)/ln 2, minus the synonymous-codon median (not a log2 …",chain 1 MALEPIDYTTHSREIDAEYLKIVRGSDPDTTWLIISPNAKKEYEPESTGSSFHDFLQLFDETKVQYGLARVSPPGSDVEKIIIIGWCPDSAPLKTRASFAANFAAVANNLFKGYHVQVTARDEDDLDENELLMKISNAAGARYSIQTSSKQQGKASTPPVKKSFTPSKSPAPVSKKEPVKTPSPAPAAKISSRVNDNNDDDDWNEPELKERDFDQAPLKPNQSSYKPIGKIDLQKVIAEEKAKEDPRLVQKPTAAGSKIDPSSDIANLKNESKLKRDSEFNSFLGTTKPPSMTESSLKNDDDKVIKGFRNEKSPAQLWAERKAKQNSGNAETKAEAPKPEVPEDEPEGEPDVKDLKSKFEGLAASEKEEEEMENKFAPPPKKSEPTIISPKPFSKPQEPVKAEEAEQPKTDYKKIGNPLPGMHIEADNEEEPEENDDDWDDDEDEAAQPPLPSRNVASGAPVQKEEPEQEEIAPSLPSRNSIPAPKQEEAPEQAPEEEIEEEAEEAAPQLPSRSSAAPPPPPRRATPEKKPKENPWATAEYDYDAAEDNELTFVENDKIINIEFVDDDWWLGELEKDGTKGLFPSNYVSLGN [chain 1 S579T]
2,"-1.08 DMS score: mean over two replicates of log2(f_test/f_ref + 0.5)/ln 2, minus the synonymous-codon median (not a log2 …",chain 1 MALEPIDYTTHSREIDAEYLKIVRGSDPDTTWLIISPNAKKEYEPESTGSSFHDFLQLFDETKVQYGLARVSPPGSDVEKIIIIGWCPDSAPLKTRASFAANFAAVANNLFKGYHVQVTARDEDDLDENELLMKISNAAGARYSIQTSSKQQGKASTPPVKKSFTPSKSPAPVSKKEPVKTPSPAPAAKISSRVNDNNDDDDWNEPELKERDFDQAPLKPNQSSYKPIGKIDLQKVIAEEKAKEDPRLVQKPTAAGSKIDPSSDIANLKNESKLKRDSEFNSFLGTTKPPSMTESSLKNDDDKVIKGFRNEKSPAQLWAERKAKQNSGNAETKAEAPKPEVPEDEPEGEPDVKDLKSKFEGLAASEKEEEEMENKFAPPPKKSEPTIISPKPFSKPQEPVKAEEAEQPKTDYKKIGNPLPGMHIEADNEEEPEENDDDWDDDEDEAAQPPLPSRNVASGAPVQKEEPEQEEIAPSLPSRNSIPAPKQEEAPEQAPEEEIEEEAEEAAPQLPSRSSAAPPPPPRRATPEKKPKENPWATAQYDYDAAEDNELTFVENDKIINIEFVDDDWWLGELEKDGSKGLFPSNYVSLGN [chain 1 E540Q]
3,"0.0612 DMS score: mean over two replicates of log2(f_test/f_ref + 0.5)/ln 2, minus the synonymous-codon median (not a log2 …",chain 1 MALEPIDYTTHSREIDAEYLKIVRGSDPDTTWLIISPNAKKEYEPESTGSSFHDFLQLFDETKVQYGLARVSPPGSDVEKIIIIGWCPDSAPLKTRASFAANFAAVANNLFKGYHVQVTARDEDDLDENELLMKISNAAGARYSIQTSSKQQGKASTPPVKKSFTPSKSPAPVSKKEPVKTPSPAPAAKISSRVNDNNDDDDWNEPELKERDFDQAPLKPNQSSYKPIGKIDLQKVIAEEKAKEDPRLVQKPTAAGSKIDPSSDIANLKNESKLKRDSEFNSFLGTTKPPSMTESSLKNDDDKVIKGFRNEKSPAQLWAERKAKQNSGNAETKAEAPKPEVPEDEPEGEPDVKDLKSKFEGLAASEKEEEEMENKFAPPPKKSEPTIISPKPFSKPQEPVKAEEAEQPKTDYKKIGNPLPGMHIEADNEEEPEENDDDWDDDEDEAAQPPLPSRNVASGAPVQKEEPEQEEIAPSLPSRNSIPAPKQEEAPEQAPEEEIEEEAEEAAPQLPSRSSAAPPPPPRRATPEKKPKENPWATAEYDYDAAEDFELTFVENDKIINIEFVDDDWWLGELEKDGSKGLFPSNYVSLGN [chain 1 N549F]
4,"-1.36 DMS score: mean over two replicates of log2(f_test/f_ref + 0.5)/ln 2, minus the synonymous-codon median (not a log2 …",chain 1 MALEPIDYTTHSREIDAEYLKIVRGSDPDTTWLIISPNAKKEYEPESTGSSFHDFLQLFDETKVQYGLARVSPPGSDVEKIIIIGWCPDSAPLKTRASFAANFAAVANNLFKGYHVQVTARDEDDLDENELLMKISNAAGARYSIQTSSKQQGKASTPPVKKSFTPSKSPAPVSKKEPVKTPSPAPAAKISSRVNDNNDDDDWNEPELKERDFDQAPLKPNQSSYKPIGKIDLQKVIAEEKAKEDPRLVQKPTAAGSKIDPSSDIANLKNESKLKRDSEFNSFLGTTKPPSMTESSLKNDDDKVIKGFRNEKSPAQLWAERKAKQNSGNAETKAEAPKPEVPEDEPEGEPDVKDLKSKFEGLAASEKEEEEMENKFAPPPKKSEPTIISPKPFSKPQEPVKAEEAEQPKTDYKKIGNPLPGMHIEADNEEEPEENDDDWDDDEDEAAQPPLPSRNVASGAPVQKEEPEQEEIAPSLPSRNSIPAPKQEEAPEQAPEEEIEEEAEEAAPQLPSRSSAAPPPPPRRATPEKKPKENPWATAEYDYDAAEDNELTFVENDKIINIHFVDDDWWLGELEKDGSKGLFPSNYVSLGN [chain 1 E563H]
5,"-0.465 DMS score: mean over two replicates of log2(f_test/f_ref + 0.5)/ln 2, minus the synonymous-codon median (not a log2 …",chain 1 MALEPIDYTTHSREIDAEYLKIVRGSDPDTTWLIISPNAKKEYEPESTGSSFHDFLQLFDETKVQYGLARVSPPGSDVEKIIIIGWCPDSAPLKTRASFAANFAAVANNLFKGYHVQVTARDEDDLDENELLMKISNAAGARYSIQTSSKQQGKASTPPVKKSFTPSKSPAPVSKKEPVKTPSPAPAAKISSRVNDNNDDDDWNEPELKERDFDQAPLKPNQSSYKPIGKIDLQKVIAEEKAKEDPRLVQKPTAAGSKIDPSSDIANLKNESKLKRDSEFNSFLGTTKPPSMTESSLKNDDDKVIKGFRNEKSPAQLWAERKAKQNSGNAETKAEAPKPEVPEDEPEGEPDVKDLKSKFEGLAASEKEEEEMENKFAPPPKKSEPTIISPKPFSKPQEPVKAEEAEQPKTDYKKIGNPLPGMHIEADNEEEPEENDDDWDDDEDEAAQPPLPSRNVASGAPVQKEEPEQEEIAPSLPSRNSIPAPKQEEAPEQAPEEEIEEEAEEAAPQLPSRSSAAPPPPPRRATPEKKPKENPWATAEYDYDAAEDNELTFVENDKIINIEFVDDDWWVGELEKDGSKGLFPSNYVSLGN [chain 1 L571V]
